{
  "source": "patent US20220143148A1",
  "about": "“COMPOSITIONS AND METHODS FOR MODULATING CGRP SIGNALING TO REGULATE INTESTINAL INNATE LYMPHOID CELLS” (The Broad Institute, Inc., priority 2019, published 2022)",
  "test_system": "small intestinal immune cells",
  "test": "Droplet-based scRNA-seq of small intestinal immune cells (LP and PP), OVA vs PBS, clustering and differential expression",
  "format": "in vivo, mouse",
  "conditions": "PP, cluster ID 8",
  "excerpt": "To comprehensively characterize small intestinal immune cells, Applicants generated scRNA-Seq profiles for 58,067 immune cells collected from lamina propria (LP) and Peyer's patch (PP) regions at steady state and after induction of a type 2 inflammatory reaction to ovalbumin (OVA) (Brandt et al., 2003) (FIGS. 1A and 8A). To ensure sufficient representation of rare cells, Applicants combined a normalization strategy—removing by flow sorting either a portion of IgD+ naïve B cells, which are the most abundant cell type in PPs, or all CD19+ and CD3+ T cells (FIG. 8B, Methods)—with profiling of a sufficiently large number of cells number (P>0.99 to recover at least 15 cells from each cluster, Methods) by massively parallel scRNA-seq (Haber et al., 2017) (Methods). Applicants obtained 36,797 and 21,270 high quality cells passing initial filtering (Methods) from PP and LP regions, respectively.\nOverall, Applicants annotated 27 cell subsets across the two compartments, spanning T cells, B cells, ILCs, dendritic cells (DCs), myeloid cells and stromal cells, in frequencies ranging from 0.07% to 14%. Briefly, Applicants first partitioned the cells from the PP regions by unsupervised clustering (Methods) into 46 clusters, retained the 97% of cells that were robustly assigned cell identities in each cluster (Methods), assigned the cells from the LP regions to the 46 clusters using a classifier (Methods), and visualized the data with scvis (Ding et al., 2018), a deep generative model-based method (FIGS. 1B and 8C, Methods). Next, Applicants identified genes that were differentially expressed between the cells in each cluster and the remaining cells (Table 1, Methods), as well as between pairs of clusters (Table 2), to elucidate identities of similar cell types/states. Applicants excluded from downstream analysis clusters mostly consisting of contaminants from epithelium, likely doublets, or cells with a small number of Unique Molecular Identifiers (UMIs) (FIGS. 1C and 8D), or lacking distinct markers (Methods). Altogether, Applicants retained 27 clusters spanning 85% of the cells and each associated with distinct marker genes (FIG. 8E, Methods).\nTo induce allergic reaction to OVA, 6 to 7 weeks old mice were sensitized twice, two weeks apart, with 50 μg of OVA plus 1 mg of aluminum potassium sulfate adjuvant via intraperitoneal injection. Two weeks later, mice were orally administered with 50 mg of OVA on every other day for a total of five times. 1 μg of α-CGRP peptide was administered simultaneously when indicated. Mice were deprived of food for 3-4 hours in cages with wood chip bedding for limiting antigen degradation in the stomach before each intragastric challenge.\nIsolation of cells from Peyer's patches (PPs). Peyer's patches (PPs) were carefully dissected from the small intestine under a stereo microscope using a fine scissor, pierced once with a fine forcep. Tissues were digested in freshly made digestion buffer (RPMI-1640 containing 100 μg/ml Liberase™ and 50 μg/ml DNase I at 37° C. on a roto-mixer. After 15 min, tissues were very gently mixed using a 1 ml pipette. The supernatant was collected and added to ice-cold MACS buffer (pH 7.4; PBS plus 2% FCS and 2 mM EDTA). Pre-warmed (37° C.) fresh digestion buffer was added to the remaining tissues. After rotation at 37° C. for 15 min, the mixture was vigorously mixed using a 1 ml pipette for 1 min. Supernatants from the two steps were combined and passed through 70 μm filters and stained for FACS (below).\nIsolation of cells from the lamina propria (LP). The small intestines were opened longitudinally and washed in ice-cold PBS. For scRNA-seq, roughly 0.5 cm of fragments from each of the distal, middle and proximal regions without visible PPs were collected. Epithelial cells were dissociated by tissue rotation in pre-warmed (37° C.) PBS containing 10 mM EDTA at 37° C. for 15 min, followed by additional incubation on ice for 15 min. Tissues were then shaken vigorously. […]",
  "data": [
    {"molecule": "OVA (protein, UniProt P01012 2-386, looked up) Ovalbumin: GSIGAASMEFCFDVFKELKVHHANENIFYCPIAIMSALAMVYLGAKDSTRTQINKVVRFDKLPGFGDSIEAQCGTSVNVHSSLRDILNQITKPNDVYSFSLASRLYAEERYPILPEYLQCVKELYRGGLEPINFQTAADQARELINSWVESQTNGIIRNVLQPSSVDSQTAMVLVNAIVFKGLWEKAFKDEDTQAMPFRVTEQESKPVQMMYQIGLFRVASMASEKMKILELPFASGTMSMLVLLPDEVSGLEQLESIINFEKLTEWTSSNVMEERKIKVYLPRMKMEEKYNLTSVLMAMGITDVFSSSANLSGISSAESLKISQAVHAAHAEINEAGREVVGSAEAGVDAASVSEEFRADHPFLFCIKHIATNAVLFFGRCVSP", "values": [
      {"measurement": "Rab35 percentage of expressing cells in OVA-treated group", "value": 0.207},
      {"measurement": "Rac2 percentage of expressing cells in OVA-treated group", "value": 0.97},
      {"measurement": "Rel percentage of expressing cells in OVA-treated group", "value": 0.139},
      {"measurement": "Rgs1 percentage of expressing cells in OVA-treated group", "value": 0.699},
      {"measurement": "Rnf125 percentage of expressing cells in OVA-treated group", "value": 0.167},
      {"measurement": "Rnf157 percentage of expressing cells in OVA-treated group", "value": 0.188},
      {"measurement": "Rora percentage of expressing cells in OVA-treated group", "value": 0.161},
      {"measurement": "Rrad percentage of expressing cells in OVA-treated group", "value": 0.191},
      {"measurement": "Rsrp1 percentage of expressing cells in OVA-treated group", "value": 0.559},
      {"measurement": "Samd9l percentage of expressing cells in OVA-treated group", "value": 0.176},
      {"measurement": "Samsn1 percentage of expressing cells in OVA-treated group", "value": 0.324},
      {"measurement": "Sh2d1a percentage of expressing cells in OVA-treated group", "value": 0.488},
      {"measurement": "Sik1 percentage of expressing cells in OVA-treated group", "value": 0.161},
      {"measurement": "Skil percentage of expressing cells in OVA-treated group", "value": 0.207},
      {"measurement": "Sla percentage of expressing cells in OVA-treated group", "value": 0.335},
      {"measurement": "Slfn2 percentage of expressing cells in OVA-treated group", "value": 0.408},
      {"measurement": "Sp100 percentage of expressing cells in OVA-treated group", "value": 0.537},
      {"measurement": "Taf10 percentage of expressing cells in OVA-treated group", "value": 0.347},
      {"measurement": "Tfam percentage of expressing cells in OVA-treated group", "value": 0.19},
      {"measurement": "Tgif1 percentage of expressing cells in OVA-treated group", "value": 0.305},
      {"measurement": "Tm6sf1 percentage of expressing cells in OVA-treated group", "value": 0.454},
      {"measurement": "Traf1 percentage of expressing cells in OVA-treated group", "value": 0.464},
      {"measurement": "Tsc22d3 percentage of expressing cells in OVA-treated group", "value": 0.664},
      {"measurement": "Tuba4a percentage of expressing cells in OVA-treated group", "value": 0.191},
      {"measurement": "Txndc5 percentage of expressing cells in OVA-treated group", "value": 0.239},
      {"measurement": "Txnip percentage of expressing cells in OVA-treated group", "value": 0.398},
      {"measurement": "Ube2s percentage of expressing cells in OVA-treated group", "value": 0.478},
      {"measurement": "VgIl4 percentage of expressing cells in OVA-treated group", "value": 0.47},
      {"measurement": "Vps37b percentage of expressing cells in OVA-treated group", "value": 0.79},
      {"measurement": "Zc3h12a percentage of expressing cells in OVA-treated group", "value": 0.182},
      {"measurement": "Zfp36l2 percentage of expressing cells in OVA-treated group", "value": 0.84},
      {"measurement": "Zfp512 percentage of expressing cells in OVA-treated group", "value": 0.446},
      {"measurement": "AW112010 LN (average fold change)", "setting": "OVA vs PBS", "value": 0.208},
      {"measurement": "AY036118 LN (average fold change)", "setting": "OVA vs PBS", "value": "−0.339"},
      {"measurement": "Actr3 LN (average fold change)", "setting": "OVA vs PBS", "value": 0.315},
      {"measurement": "Alyref LN (average fold change)", "setting": "OVA vs PBS", "value": "−0.597"},
      {"measurement": "Amd1 LN (average fold change)", "setting": "OVA vs PBS", "value": "−0.426"},
      {"measurement": "Arf4 LN (average fold change)", "setting": "OVA vs PBS", "value": "−0.186"},
      {"measurement": "Arfrp1 LN (average fold change)", "setting": "OVA vs PBS", "value": 0.609},
      {"measurement": "Arl6ip1 LN (average fold change)", "setting": "OVA vs PBS", "value": 0.367},
      {"measurement": "Arl6ip5 LN (average fold change)", "setting": "OVA vs PBS", "value": 0.344},
      {"measurement": "Arpc5l LN (average fold change)", "setting": "OVA vs PBS", "value": 0.383},
      {"measurement": "Arrb2 LN (average fold change)", "setting": "OVA vs PBS", "value": 0.295},
      {"measurement": "Ash1l LN (average fold change)", "setting": "OVA vs PBS", "value": 0.491},
      {"measurement": "B2m LN (average fold change)", "setting": "OVA vs PBS", "value": 0.159},
      {"measurement": "Bcl2 LN (average fold change)", "setting": "OVA vs PBS", "value": 0.286},
      {"measurement": "Bcl2a1b LN (average fold change)", "setting": "OVA vs PBS", "value": "−0.507"},
      {"measurement": "Bcl2l11 LN (average fold change)", "setting": "OVA vs PBS", "value": "−0.208"},
      {"measurement": "Bhlhe40 LN (average fold change)", "setting": "OVA vs PBS", "value": "−0.159"},
      {"measurement": "Cap1 LN (average fold change)", "setting": "OVA vs PBS", "value": 0.235},
      {"measurement": "Ccr2 LN (average fold change)", "setting": "OVA vs PBS", "value": 0.330},
      {"measurement": "Cd47 LN (average fold change)", "setting": "OVA vs PBS", "value": 0.262},
      {"measurement": "Cd69 LN (average fold change)", "setting": "OVA vs PBS", "value": "−0.386"},
      {"measurement": "Cd74 LN (average fold change)", "setting": "OVA vs PBS", "value": "−0.187"},
      {"measurement": "Cdk2ap1 LN (average fold change)", "setting": "OVA vs PBS", "value": "−0.673"},
      {"measurement": "Cdkn1a LN (average fold change)", "setting": "OVA vs PBS", "value": "−0.980"},
      {"measurement": "Cdv3 LN (average fold change)", "setting": "OVA vs PBS", "value": "−0.281"},
      {"measurement": "Cks2 LN (average fold change)", "setting": "OVA vs PBS", "value": "−0.601"},
      {"measurement": "Clec2d LN (average fold change)", "setting": "OVA vs PBS", "value": 0.391},
      {"measurement": "Coq10b LN (average fold change)", "setting": "OVA vs PBS", "value": "−0.426"},
      {"measurement": "Crem LN (average fold change)", "setting": "OVA vs PBS", "value": "−0.681"},
      {"measurement": "Csrp1 LN (average fold change)", "setting": "OVA vs PBS", "value": "−0.437"},
      {"measurement": "Ctla2a LN (average fold change)", "setting": "OVA vs PBS", "value": 0.372},
      {"measurement": "Cxcr4 LN (average fold change)", "setting": "OVA vs PBS", "value": 0.544},
      {"measurement": "Ddx21 LN (average fold change)", "setting": "OVA vs PBS", "value": "−0.379"},
      {"measurement": "Defa24 LN (average fold change)", "setting": "OVA vs PBS", "value": "−0.967"},
      {"measurement": "Dgat1 LN (average fold change)", "setting": "OVA vs PBS", "value": "−0.352"},
      {"measurement": "Dusp1 LN (average fold change)", "setting": "OVA vs PBS", "value": "−0.244"},
      {"measurement": "Eef2 LN (average fold change)", "setting": "OVA vs PBS", "value": 0.257},
      {"measurement": "Egr1 LN (average fold change)", "setting": "OVA vs PBS", "value": "−0.640"},
      {"measurement": "Eif4a2 LN (average fold change)", "setting": "OVA vs PBS", "value": 0.300},
      {"measurement": "Emb LN (average fold change)", "setting": "OVA vs PBS", "value": "−0.223"},
      {"measurement": "Fam105a LN (average fold change)", "setting": "OVA vs PBS", "value": 0.376},
      {"measurement": "Fasl LN (average fold change)", "setting": "OVA vs PBS", "value": 0.296},
      {"measurement": "Fcer1g LN (average fold change)", "setting": "OVA vs PBS", "value": 0.170}
    ]}
  ]
}
